Test results: patent US20260043020A1, “BINDING MEMBERS WITH ALTERED DIVERSITY SCAFFOLD DOMAINS” (priority 2016, published 2026)

Assays:
human Kv 1.3 (human) = human Kv 1.3 (human) (UniProt P22001); test: cell-based or functional assay
human ASIC1a (human) = biological target: T1, human ASIC1a (human) (UniProt P78348); test: cell-based or functional assay
T1 sequence (looked up): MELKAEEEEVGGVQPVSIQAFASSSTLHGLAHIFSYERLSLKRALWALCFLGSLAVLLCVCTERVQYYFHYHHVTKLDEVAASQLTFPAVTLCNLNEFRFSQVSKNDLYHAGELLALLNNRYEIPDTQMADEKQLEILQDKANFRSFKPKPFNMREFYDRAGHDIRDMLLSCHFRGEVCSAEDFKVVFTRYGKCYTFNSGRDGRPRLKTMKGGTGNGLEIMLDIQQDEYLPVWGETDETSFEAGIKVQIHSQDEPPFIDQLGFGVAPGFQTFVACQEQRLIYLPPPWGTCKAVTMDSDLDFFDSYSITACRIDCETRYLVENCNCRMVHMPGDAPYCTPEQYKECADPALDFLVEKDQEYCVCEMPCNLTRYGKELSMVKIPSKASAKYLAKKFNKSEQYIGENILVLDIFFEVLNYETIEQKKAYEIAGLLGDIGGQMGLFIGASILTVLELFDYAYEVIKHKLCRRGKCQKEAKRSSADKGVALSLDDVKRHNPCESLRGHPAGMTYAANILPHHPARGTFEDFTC

trypsin [1] = test: phage TRF ELISA; GlyAla (Pro3Gly, Arg4Ala) mutant against the clone
trypsin [2] = test: monoclonal phage TRF ELISA
trypsin [3] = test: flow cytometry, biotinylated trypsin with streptavidin-APC
trypsin [4] = test: flow cytometry of HEK293 cells 15 days post transfection, biotinylated trypsin/streptavidin-APC (FL4) against anti-Fc-PE (FL2)
β-galactosidase = test: monoclonal phage TRF ELISA on B-galactosidase
Chain of β-galactosidase (P00722 2-1024): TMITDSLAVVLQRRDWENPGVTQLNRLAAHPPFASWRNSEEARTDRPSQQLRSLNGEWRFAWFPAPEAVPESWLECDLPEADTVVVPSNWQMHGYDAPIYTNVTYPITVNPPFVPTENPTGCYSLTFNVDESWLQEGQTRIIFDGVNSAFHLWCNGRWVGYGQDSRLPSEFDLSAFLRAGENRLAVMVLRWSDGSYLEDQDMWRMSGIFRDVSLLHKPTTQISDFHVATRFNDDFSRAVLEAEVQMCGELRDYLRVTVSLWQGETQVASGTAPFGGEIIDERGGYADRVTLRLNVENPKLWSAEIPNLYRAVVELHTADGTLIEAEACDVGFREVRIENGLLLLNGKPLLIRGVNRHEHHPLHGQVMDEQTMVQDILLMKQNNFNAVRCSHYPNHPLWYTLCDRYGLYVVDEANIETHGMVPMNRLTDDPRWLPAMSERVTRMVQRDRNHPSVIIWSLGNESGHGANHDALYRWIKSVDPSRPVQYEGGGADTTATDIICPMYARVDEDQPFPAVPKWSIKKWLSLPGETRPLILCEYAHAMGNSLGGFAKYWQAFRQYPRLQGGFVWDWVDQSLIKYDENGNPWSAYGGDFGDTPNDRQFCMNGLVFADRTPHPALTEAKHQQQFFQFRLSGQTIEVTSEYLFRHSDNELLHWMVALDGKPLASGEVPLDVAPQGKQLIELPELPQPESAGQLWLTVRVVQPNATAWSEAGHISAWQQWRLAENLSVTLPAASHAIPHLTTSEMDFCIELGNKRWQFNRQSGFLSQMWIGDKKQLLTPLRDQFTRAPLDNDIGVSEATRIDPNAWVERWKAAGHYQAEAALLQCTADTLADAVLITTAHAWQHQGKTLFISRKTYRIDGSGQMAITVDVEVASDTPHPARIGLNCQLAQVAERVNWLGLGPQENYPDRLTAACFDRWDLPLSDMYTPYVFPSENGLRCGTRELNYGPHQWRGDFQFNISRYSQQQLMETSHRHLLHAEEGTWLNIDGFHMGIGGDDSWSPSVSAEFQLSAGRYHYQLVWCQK

Chain of human Kv 1.3 (human) (P22001 whole entry): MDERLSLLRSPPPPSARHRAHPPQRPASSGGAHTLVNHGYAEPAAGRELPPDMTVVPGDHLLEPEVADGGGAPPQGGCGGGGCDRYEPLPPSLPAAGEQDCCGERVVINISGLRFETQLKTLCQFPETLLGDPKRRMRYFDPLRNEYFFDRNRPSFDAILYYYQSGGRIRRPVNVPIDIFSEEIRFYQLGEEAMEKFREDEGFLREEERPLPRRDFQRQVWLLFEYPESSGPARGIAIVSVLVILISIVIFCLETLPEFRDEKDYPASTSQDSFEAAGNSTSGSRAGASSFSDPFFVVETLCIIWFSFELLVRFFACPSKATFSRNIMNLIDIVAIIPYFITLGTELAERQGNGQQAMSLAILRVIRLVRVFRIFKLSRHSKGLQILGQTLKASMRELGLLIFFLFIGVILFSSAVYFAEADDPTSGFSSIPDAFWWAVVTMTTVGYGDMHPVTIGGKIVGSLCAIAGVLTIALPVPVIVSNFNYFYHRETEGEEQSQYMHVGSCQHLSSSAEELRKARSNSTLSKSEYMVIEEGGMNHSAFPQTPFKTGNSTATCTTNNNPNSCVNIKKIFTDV

B1: KB_A07_Shk (antibody, V domains shown)
VH: EVQLVESGGGLVRPGGSLRLSCAASGFTFSSYAMSWVRQAPGKGLEWVSAISGSGGSTYYADSVKGRFTISRDNTKNSLYLQMTSLRADDTAFYYCVKDFGPGYGTGWFDYWGPGTLVTVSS
VL: NWYQQKPGKAPKLLIYAAGVRSCIDTIPKSRCTAFQCKHSMKYRLSFCRKTCGTCSRSGVPSRFSGSGSGTDFTLTISSLQPEDFATYYCQQGASPPYTFGQGTKVEIKR
Work on B1 yielded an IC50, inhibition of huKv1.3 currents (QPatch, CHO cells) (human Kv 1.3 (human)) of 40 nM.

B2: KB_A07 IgG1 (EETI-II fusion, isotype control) (antibody, V domains shown)
VH: EVQLVESGGGLVRPGGSLRLSCAASGFTFSSYAMSWVRQAPGKGLEWVSAISGSGGSTYYADSVKGRFTISRDNTKNSLYLQMTSLRADDTAFYYCVKDFGPGYGTGWFDYWGPGTLVTVSS
VL: YLNWYQQKPGKAPKLLIYAAGVCPRILMRCKQDSDCLAGCVCGPNGFCGSRSGVPSRFSGSGSGTDFTLTISSLQPEDFATYYCQQGASPPYTFGQGTKVEIKR
Binder B2 has an IC50, inhibition of huKv1.3 currents (QPatch, CHO cells) (human Kv 1.3 (human)) of over 10000 nM and a % ASIC1a current remaining, 6 µM KnotBody (QPatch, HEK293 cells) (human ASIC1a (human)) of 70.9%.

B3: KB_C10 (scFv, V domains shown)
VH: EVQLVESGGGLVRPGGSLRLSCAASGFTFSSYAMSWVRQAPGKGLEWVSAISGSGGSTYYADSVKGRFTISRDNTKNSLYLQMTSLRADDTAFYYCVKDFGPGYGTGWFDYWGPGTLVTVSS
VL: AVNWYQQLPGKAPKLLIYAAGPCPRILMRCKQDSDCLAGCVCGPNGFCGADSGVSDRFSGSKSGTSASLAITGLQAEDEGDYYCAAWDDSLNGLVFGGGTKVTVLG
Binder B3 has a % reduction in binding signal (trypsin [1]) of 100% and a trypsin binding signal (FU) (trypsin [2]) of 119000 FU.

B4: KB_B11 (scFv, V domains shown)
VH: EVQLVESGGGLVRPGGSLRLSCAASGFTFSSYAMSWVRQAPGKGLEWVSAISGSGGSTYYADSVKGRFTISRDNTKNSLYLQMTSLRADDTAFYYCVKDFGPGYGTGWFDYWGPGTLVTVSS
VL: TQPPSVSEAPRQRVTITCGSRPCPRILMRCKQDSDCLAGCVCGPNGFCGSHNWYQQLPGSSPTTVIYEDNQRPSGVPDRFSGSIDRSSNSASLTISGLKTEDEADYYCQSYDSSNHRVVFGGGTKLTVLG
Binder B4 has a % reduction in binding signal (trypsin [1]) of 100% and a trypsin binding signal (FU) (trypsin [2]) of 10300 FU.

B5: KB_B12 (scFv, V domains shown)
VH: EVQLVESGGGLVRPGGSLRLSCAASGFTFSSYAMSWVRQAPGKGLEWVSAISGSGGSTYYADSVKGRFTISRDNTKNSLYLQMTSLRADDTAFYYCVKDFGPGYGTGWFDYWGPGTLVTVSS
VL: TQPPSVSEAPRQRVTITCGERPCPRILMRCKQDSDCLAGCVCGPNGFCGANNWYQQLPGSSPTTVIYEDNQRPSGVPDRFSGSIDSSSNSASLTISGLKTEDEADYYCQSYDSSNQVFGGGTKVTVLG
Binder B5 has a % reduction in binding signal (trypsin [1]) of 97% and a trypsin binding signal (FU) (trypsin [2]) of 17400 FU.

B6: KB_A12 Kaliotoxin (KTX) fusion (antibody)
VH: EVQLVESGGGLVRPGGSLRLSCAASGFTFSSYAMSWVRQAPGKGLEWVSAISGSGGSTYYADSVKGRFTISRDNTKNSLYLQMTSLRADDTAFYYCVKDFGPGYGTGWFDYWGPGTLVTVSS
VL: QSVLTQPPSVSEAPRQRVTITCSGSSSNIGNNAVNWYQQLPGKAPKLLIYAAGRGVEINVKCSGSPQCLKPCKDAGMRFGKCMNRKCHCTPKANSGVSDRFSAAKSGTSASLAINGLRSEDEADYYCAAWDDSLNGYVFGTGTKLTVLGQP
Work on B6 yielded an IC50, inhibition of huKv1.3 currents (QPatch, CHO cells) (human Kv 1.3 (human)) of over 10000 nM.

B7: KB_A07 scFv-Fc, membrane anchored on HEK293 cells (Fc fusion)
VH: EVQLVESGGGLVRPGGSLRLSCAASGFTFSSYAMSWVRQAPGKGLEWVSAISGSGGSTYYADSVKGRFTISRDNTKNSLYLQMTSLRADDTAFYYCVKDFGPGYGTGWFDYWGPGTLVTVSS
VL: DIQMTQSPSSLSASVGDRVTITCRASQSISSYLNWYQQKPGKAPKLLIYAAGVCPRILMRCKQDSDCLAGCVCGPNGFCGSRSGVPSRFSGSGSGTDFTLTISSLQPEDFATYYCQQGASPPYTFGQGTKVEIKRT
Work on B7 yielded a % of transfected HEK293 cells dual stained for Fc and trypsin (trypsin [3]) of 34%, a cells in Q1 (trypsin/streptavidin-APC positive, anti-Fc-PE negative) (trypsin [4]) of 3.65% and a cells in Q2 (anti-Fc-PE positive and trypsin/streptavidin-APC positive) (trypsin [4]) of 33.8%. It also gave a cells in Q3 (anti-Fc-PE positive, trypsin/streptavidin-APC negative) (trypsin [4]) of 11.1%.

B8: KB_B10 (scFv, V domains shown)
VH: EVQLVESGGGLVRPGGSLRLSCAASGFTFSSYAMSWVRQAPGKGLEWVSAISGSGGSTYYADSVKGRFTISRDNTKNSLYLQMTSLRADDTAFYYCVKDFGPGYGTGWFDYWGPGTLVTVSS
VL: QSVLTQLPSVSEAPRQRVTITCGRAMCPRILMRCKQDSDCLAGCVCGPNGFCGTGNWYQQHPGKAPKLIIFDVSKRPSGVPDRFSASKSGNTASLTISGLQAEDEADYYCNSYTSSNTWVFGGGTQLTVLG
B8 showed a % reduction in binding signal (trypsin [1]) of 100% and a trypsin binding signal (FU) (trypsin [2]) of 9270 FU.

B9: KB_A07 MoKa-1 fusion (antibody, V domains shown)
VH: EVQLVESGGGLVRPGGSLRLSCAASGFTFSSYAMSWVRQAPGKGLEWVSAISGSGGSTYYADSVKGRFTISRDNTKNSLYLQMTSLRADDTAFYYCVKDFGPGYGTGWFDYWGPGTLVTVSS
VL: DIQMTQSPSSLSASVGDRVTITCRASQSISSYLNWYQQKPGKAPKLLIYAAGVINVKCSLPQQCIKPCKDAGMRFGKCMNKKCRCYSSRSGVPSRFSGSGSGTDFTLTISSLQPEDFATYYCQQGASPPYTFGQGTKVEIKRT
Binder B9 has an IC50, inhibition of huKv1.3 currents (QPatch, CHO cells) (human Kv 1.3 (human)) of over 10000 nM.

B10: KB_A12 scFv-Fc, membrane anchored on HEK293 cells (Fc fusion)
VH: EVQLVESGGGLVRPGGSLRLSCAASGFTFSSYAMSWVRQAPGKGLEWVSAISGSGGSTYYADSVKGRFTISRDNTKNSLYLQMTSLRADDTAFYYCVKDFGPGYGTGWFDYWGPGTLVTVSS
VL: QSVLTQPPSVSEAPRQRVTITCSGSSSNIGNNAVNWYQQLPGKAPKLLIYAAGRCPRILMRCKQDSDCLAGCVCGPNGFCGANSGVSDRFSAAKSGTSASLAINGLRSEDEADYYCAAWDDSLNGYVFGTGTKLTVLGQP
B10 gave a % of transfected HEK293 cells dual stained for Fc and trypsin (trypsin [3]) of 11%, a cells in Q1 (trypsin/streptavidin-APC positive, anti-Fc-PE negative) (trypsin [4]) of 1.54% and a cells in Q2 (anti-Fc-PE positive and trypsin/streptavidin-APC positive) (trypsin [4]) of 11.2%. For the same binder, the cells in Q3 (anti-Fc-PE positive, trypsin/streptavidin-APC negative) (trypsin [4]) was 3.78%.

B11: KB_A12_Shk (antibody, V domains shown)
VH: EVQLVESGGGLVRPGGSLRLSCAASGFTFSSYAMSWVRQAPGKGLEWVSAISGSGGSTYYADSVKGRFTISRDNTKNSLYLQMTSLRADDTAFYYCVKDFGPGYGTGWFDYWGPGTLVTVSS
VL: NWYQQLPGKAPKLLIYAAGRRSCIDTIPKSRCTAFQCKHSMKYRLSFCRKTCGTCANSGVSDRFSAAKSGTSASLAINGLRSEDEADYYCAAWDDSLNGYVFGTGTKLTVLG
For B11, the IC50, inhibition of huKv1.3 currents (QPatch, CHO cells) (human Kv 1.3 (human)) was 20 nM.

B12: KB_A07_Kaliotoxin (KTX) (antibody, V domains shown)
VH: EVQLVESGGGLVRPGGSLRLSCAASGFTFSSYAMSWVRQAPGKGLEWVSAISGSGGSTYYADSVKGRFTISRDNTKNSLYLQMTSLRADDTAFYYCVKDFGPGYGTGWFDYWGPGTLVTVSS
VL: DIQMTQSPSSLSASVGDRVTITCRASQSISSYLNWYQQKPGKAPKLLIYAAGVGVEINVKCSGSPQCLKPCKDAGMRFGKCMNRKCHCTPKSRSGVPSRFSGSGSGTDFTLTISSLQPEDFATYYCQQGASPPYTFGQGTKVEIKR
Binder B12 has an IC50, inhibition of huKv1.3 currents (QPatch, CHO cells) (human Kv 1.3 (human)) of 900 nM.

B13: KB_A12 IgG1 (EETI-II fusion, isotype control) (antibody, V domains shown)
VH: EVQLVESGGGLVRPGGSLRLSCAASGFTFSSYAMSWVRQAPGKGLEWVSAISGSGGSTYYADSVKGRFTISRDNTKNSLYLQMTSLRADDTAFYYCVKDFGPGYGTGWFDYWGPGTLVTVSS
VL: AVNWYQQLPGKAPKLLIYAAGRCPRILMRCKQDSDCLAGCVCGPNGFCGANSGVSDRFSAAKSGTSASLAINGLRSEDEADYYCAAWDDSLNGYVFGTGTKLTVLG
In the case of B13, the IC50, inhibition of huKv1.3 currents (QPatch, CHO cells) (human Kv 1.3 (human)) is reported as over 10000 nM and the % ASIC1a current remaining, 3.3 µM KnotBody (QPatch, HEK293 cells) (human ASIC1a (human)) is reported as 67.4%.

B14: KB A12_B-gal_F07 (scFv, V domains shown)
VH: EVQLVESGGGLVRPGGSLRLSCAASGFTFSSYAMSWVRQAPGKGLEWVSAISGSGGSTYYADSVKGRFTISRDNTKNSLYLQMTSLRADDTAFYYCVKDFGPGYGTGWFDYWGPGTLVTVSS
VL: AVNWYQQLPGKAPKLLIYAAGRCRTTANVRRHCKQDSDCLAGCVCGPNGFCGANSGVSDRFSAAKSGTSASLAINGLRSEDEADYYCAAWDDSLNGYVFGTGTKLTVLG
With B14 the TRF signal (β-galactosidase) was 246000.
